Eight molecules from patent US20180230213A1 (AVEO PHARMACEUTICALS, published 2018) can be followed below.

The target in assay [1] is T1, monomeric recombinant cynomologus monkey Notch3 extracellular domain (containing EGF like domains 1-12) … (cynomologus monkey).
T1 construct: domain: EGF like domains 1-12; also called monomeric rcNotch3
Put plainly: SPR BIAcore T100, antibody captured by anti-human IgG Fc, monomeric rcNotch3 analyte, 25 C. On the procedure:
(§1) The binding affinities and kinetics of binding of chimeric and humanized antibodies to monomeric recombinant human Notch3 extracellular domain (containing EGF like domains 1-11) fusion protein (monomeric rhNotch3) and monomeric recombinant cynomologus monkey Notch3 extracellular domain (containing EGF like domains 1-12) fusion protein (monomeric rcNotch3) were measured by surface plasmon resonance, using a BIAcore® T100 instrument (GE Healthcare, Piscataway, N.J.).
(§2) Goat anti-human IgGs (Fc fragment specific, Jackson ImmunoResearch, West Grove, Pa.) were immobilized on carboxymethylated dextran CM4 sensor chips by amine coupling, according to a standard protocol. Analyses were performed at 25 and 37° C. using PBS containing 0.05% surfactant P20 as running buffer. The antibodies were captured in individual flow cells at a flow rate of 10 μL/minute. Injection time was varied for each antibody to yield an Rmax between 30 and 60 RU. Buffer or Notch3 protein diluted in running buffer was injected sequentially over a reference surface (no antibody captured) and the active surface (antibody to be tested) for 240 seconds at 60 μL/minute. The dissociation phase was monitored for up to 900 seconds. The surface was then regenerated with two 60-second injections of 10 mM Glycine-HCl, pH 2.25, at a flow rate of 30 μL/minute. The Notch3 concentration range tested was 50 nM to 6.25 nM.
Kinetic parameters were determined using the kinetic function of the BIAevaluation software (GE Healthcare) with double reference subtraction. Kinetic parameters for each antibody, kₐ (association rate constant), kd (dissociation rate constant), and KD (equilibrium dissociation constant) were determined.
Background: Surface plasmon resonance follows binding to a sensor surface in real time, without labels.

Assay [2] has as its target T1, monomeric recombinant cynomologus …. In words: SPR BIAcore T100, antibody captured by anti-human IgG Fc, monomeric rcNotch3 analyte, 37 C. On the procedure:
as §1, §2

The target in assay [3] is T2, monomeric recombinant human Notch3 extracellular domain (containing EGF like domains 1-11) fusion protein (human, UniProt Q9UM47 40-467).
T2 construct: domain: EGF like domains 1-11; also called monomeric rhNotch3
T2 sequence (looked up): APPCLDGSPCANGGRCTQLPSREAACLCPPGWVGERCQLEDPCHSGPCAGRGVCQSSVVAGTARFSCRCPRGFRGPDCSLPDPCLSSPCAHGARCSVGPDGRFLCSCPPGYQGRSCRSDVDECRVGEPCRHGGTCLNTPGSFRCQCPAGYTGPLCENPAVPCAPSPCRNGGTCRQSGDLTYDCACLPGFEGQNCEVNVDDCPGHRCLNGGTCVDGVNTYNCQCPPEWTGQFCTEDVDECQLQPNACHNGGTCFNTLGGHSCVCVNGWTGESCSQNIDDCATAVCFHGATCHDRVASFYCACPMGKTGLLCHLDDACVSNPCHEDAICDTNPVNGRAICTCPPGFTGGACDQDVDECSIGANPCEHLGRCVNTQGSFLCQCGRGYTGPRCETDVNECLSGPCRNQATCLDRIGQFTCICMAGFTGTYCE
Put plainly: SPR BIAcore T100, antibody captured by anti-human IgG Fc, monomeric rhNotch3 analyte, 37 C. The protocol:
as §1, §2

For assay [4], the target named is T2, monomeric recombinant human Notch3 …. In words: SPR BIAcore T100, monomeric rhNotch3 analyte, 37 C, average of Table 16 and additional measurements. The protocol: as §2

B1: Hu4F11-70 (antibody, human IgG1, kappa, V domains shown)
VH: EVQLLESGGGLVQPGGSLRLSCAASGFTFSHYDMSWVRQAPGKGLEWVSYISRGGGSTYYPDSVKGRFTISRDNSKNTLYLQMNSLRAEDTAVYYCGRHATTAYWYFDVWGQGTMVTVSS
VL: DVVMTQTPLSLSVTPGQPASISCRSSQSLVHTHGNTYLHWYLQKPGQSPQLLIYKVSNRFSGVPDRFSGSGSGTDFTLKISRVEAEDVGVYFCSQSTHVPWTFGQGTKVEIKR
notes: Humanized, human IgG1 kappa; Hv3-23 A28T S31H T62S heavy + Kv2D-29 N28H kappa
In the case of B1, the Kd (in general, the constant that tells how readily two partners part at equilibrium) was 5.2 nM in assay [1], 9.1 nM in assay [2], 3 nM in assay [3] and 7.5 nM in assay [4]. For the same molecule, the koff (commonly the rate constant with which the complex falls apart) in assay [1] amounted to 0.001 s⁻¹; in assay [2], 0.0029 s⁻¹; in assay [3], 0.0028 s⁻¹; in assay [4], 0.0039 s⁻¹. For the same molecule, the kon (commonly the second-order rate constant of association) in assay [1] was 200000 M⁻¹ s⁻¹; in assay [2], 370000 M⁻¹ s⁻¹; in assay [3], 940000 M⁻¹ s⁻¹; in assay [4] it was 690000 M⁻¹ s⁻¹.

B2: Hu4F11-71 (antibody, human IgG1, kappa, V domains shown)
VH: EVQLLESGGGLVQPGGSLRLSCAASGFTFSSYDMSWVRQAPGKGLEWVSYISRGGGSTYYPDSVKGRFTISRDNSKNTLYLQMNSLRAEDTAVYYCGRHATTAYWYFDVWGQGTMVTVSS
VL: DVVMTQTPLSLSVTPGQPASISCRSSQSLVHTHGNTYLHWYLQKPGQSPQLLIYKVSNRFSGVPDRFSGSGSGTDFTLKISRVEAEDVGVYFCSQSTHVPWTFGQGTKVEIKR
notes: Humanized, human IgG1 kappa; Hv3-23 A28T T62S heavy + Kv2D-29 N28H kappa
In the case of B2, the equilibrium dissociation constant (Kd) in assay [1] was found to be 2.7 nM; in assay [2] it was 14 nM; in assay [3], 3 nM; in assay [4] it was 9.2 nM. Further, the koff in assay [1] was found to be 0.004 s⁻¹; in assay [2], 0.0056 s⁻¹; in assay [3], 0.0037 s⁻¹; in assay [4] it was 0.0095 s⁻¹. For the same molecule, the kon turned out to be 1.5e+06 M⁻¹ s⁻¹ in assay [1], 410000 M⁻¹ s⁻¹ in assay [2], 1.2e+06 M⁻¹ s⁻¹ in assay [3] and 1.1e+06 M⁻¹ s⁻¹ in assay [4].

B3: Hu4F11-72 (antibody, human IgG1, kappa, V domains shown)
VH: EVQLLESGGGLVQPGGSLRLSCAASGFAFSHYDMSWVRQAPGKGLEWVSYISRGGGSTYYPDSVKGRFTISRDNSKNTLYLQMNSLRAEDTAVYYCGRHATTAYWYFDVWGQGTMVTVSS
VL: DVVMTQTPLSLSVTPGQPASISCRSSQSLVHTHGNTYLHWYLQKPGQSPQLLIYKVSNRFSGVPDRFSGSGSGTDFTLKISRVEAEDVGVYFCSQSTHVPWTFGQGTKVEIKR
notes: Humanized, human IgG1 kappa; Hv3-23 S31H T62S heavy + Kv2D-29 N28H kappa
Take B3: the Kd came out at 1.6 nM in assay [1], 9.8 nM in assay [2], 5.2 nM in assay [3] and 7 nM in assay [4]. Besides, the koff in assay [1] was determined as 0.0045 s⁻¹; in assay [2] it was 0.0032 s⁻¹; in assay [3], 0.00094 s⁻¹; in assay [4], 0.0069 s⁻¹. Also, the kon was determined as 2.8e+06 M⁻¹ s⁻¹ in assay [1], 440000 M⁻¹ s⁻¹ in assay [2], 180000 M⁻¹ s⁻¹ in assay [3] and 710000 M⁻¹ s⁻¹ in assay [4].

B4: Hu4F11-69 (antibody, human IgG1, kappa, V domains shown)
VH: EVQLLESGGGLVQPGGSLRLSCAASGFTFSNYDMSWVRQAPGKGLEWVSYISRGGGSTYYPDSVKGRFTISRDNSKNTLYLQMNSLRAEDTAVYYCGRHATTAYWYFDVWGQGTMVTVSS
VL: DVVMTQTPLSLSVTPGQPASISCRSSQSLVHTHGNTYLHWYLQKPGQSPQLLIYKVSNRFSGVPDRFSGSGSGTDFTLKISRVEAEDVGVYFCSQSTHVPWTFGQGTKVEIKR
notes: Humanized, human IgG1 kappa; Hv3-23 A28T S31N T62S heavy + Kv2D-29 N28H kappa
As to B4, the Kd is 7.7 nM in assay [1], 11 nM in assay [2], 2.9 nM in assay [3] and 8.5 nM in assay [4]. The koff in assay [1] worked out at 0.00094 s⁻¹; in assay [2], 0.0038 s⁻¹; in assay [3] it was 0.0038 s⁻¹; in assay [4] it was 0.0037 s⁻¹. Also, the kon in assay [1] worked out at 120000 M⁻¹ s⁻¹; in assay [2], 400000 M⁻¹ s⁻¹; in assay [3], 1.3e+06 M⁻¹ s⁻¹; in assay [4], 710000 M⁻¹ s⁻¹.

B5: Hu4F11-73 (antibody, human IgG1, kappa, V domains shown)
VH: EVQLLESGGGLVQPGGSLRLSCAASGFTFSNYDMSWVRQAPGKGLEWVSYISRGGGSTYYPDSVKGRFTISRDNSKNTLYLQMNSLRAEDTAVYYCGRHATTAYWYFDVWGQGTMVTVSS
VL: DVVMTQTPLSLSVTPGQPASISCRSSQSLVHTYGNTYLHWYLQKPGQSPQLLIYKVSNRFSGVPDRFSGSGSGTDFTLKISRVEAEDVGVYFCSQSTHVPWTFGQGTKVEIKR
notes: Humanized, human IgG1 kappa; Hv3-23 A28T S31N T62S heavy + Kv2D-29 N28Y kappa
As to B5, the Kd came to 2.6 nM in assay [1], 15 nM in assay [2], 5.9 nM in assay [3] and 11 nM in assay [4]. Also, the koff in assay [1] turned out to be 0.0019 s⁻¹; in assay [2], 0.0063 s⁻¹; in assay [3], 0.0013 s⁻¹; in assay [4] it was 0.0046 s⁻¹. For the same molecule, the kon is 760000 M⁻¹ s⁻¹ in assay [1], 500000 M⁻¹ s⁻¹ in assay [2], 210000 M⁻¹ s⁻¹ in assay [3] and 490000 M⁻¹ s⁻¹ in assay [4].

B6: Hu4F11-74 (antibody, human IgG1, kappa, V domains shown)
VH: EVQLLESGGGLVQPGGSLRLSCAASGFTFSHYDMSWVRQAPGKGLEWVSYISRGGGSTYYPDSVKGRFTISRDNSKNTLYLQMNSLRAEDTAVYYCGRHATTAYWYFDVWGQGTMVTVSS
VL: DVVMTQTPLSLSVTPGQPASISCRSSQSLVHTYGNTYLHWYLQKPGQSPQLLIYKVSNRFSGVPDRFSGSGSGTDFTLKISRVEAEDVGVYFCSQSTHVPWTFGQGTKVEIKR
notes: Humanized, human IgG1 kappa; Hv3-23 A28T S31H T62S heavy + Kv2D-29 N28Y kappa
In the case of B6, the Kd in assay [1] was 2.8 nM; in assay [2], 12 nM; in assay [3], 3.9 nM; in assay [4], 10 nM. Further, the koff in assay [1] was determined as 0.0025 s⁻¹; in assay [2], 0.0045 s⁻¹; in assay [3], 0.0022 s⁻¹; in assay [4], 0.0051 s⁻¹. Besides, the kon in assay [1] was 900000 M⁻¹ s⁻¹; in assay [2], 440000 M⁻¹ s⁻¹; in assay [3] it was 560000 M⁻¹ s⁻¹; in assay [4] it was 490000 M⁻¹ s⁻¹.

B7: Hu4F11-32 (antibody, human IgG1, kappa, V domains shown)
VH: EVQLLESGGGLVQPGGSLRLSCAASGFAFSSYDMSWVRQAPGKGLEWVSYISRGGGSTYYPDTVKGRFTISRDNSKNTLYLQMNSLRAEDTAVYYCGRHATTAYWYFDVWGQGTMVTVSS
VL: DVVMTQTPLSLSVTPGQPASISCRSSQSLVHTNGNTYLHWYLQKPGQSPQLLIYKVSNRFSGVPDRFSGSGSGTDFTLKISRVEAEDVGVYFCSQSTHVPWTFGQGTKVEIKR
notes: Humanized, human IgG1 kappa; Sh4F11 Hv3-23 heavy + Hu4F11 Kv2D-29 kappa
As for B7, the Kd in assay [1] was 18 nM; in assay [2] it was 32 nM; in assay [3] it was 2.7 nM; in assay [4], 7.6 nM. Moreover, the koff in assay [1] stood at 0.0075 s⁻¹; in assay [2], 0.016 s⁻¹; in assay [3], 0.0046 s⁻¹; in assay [4], 0.084 s⁻¹. The kon is 790000 M⁻¹ s⁻¹ in assay [1], 500000 M⁻¹ s⁻¹ in assay [2], 1.7e+06 M⁻¹ s⁻¹ in assay [3] and 7.4e+06 M⁻¹ s⁻¹ in assay [4].

B8: Hu4F11-75 (antibody, human IgG1, kappa, V domains shown)
VH: EVQLLESGGGLVQPGGSLRLSCAASGFTFSSYDMSWVRQAPGKGLEWVSYISRGGGSTYYPDSVKGRFTISRDNSKNTLYLQMNSLRAEDTAVYYCGRHATTAYWYFDVWGQGTMVTVSS
VL: DVVMTQTPLSLSVTPGQPASISCRSSQSLVHTYGNTYLHWYLQKPGQSPQLLIYKVSNRFSGVPDRFSGSGSGTDFTLKISRVEAEDVGVYFCSQSTHVPWTFGQGTKVEIKR
notes: Humanized, human IgG1 kappa; Hv3-23 A28T T62S heavy + Kv2D-29 N28Y kappa
In the case of B8, the Kd in assay [1] came to 3.7 nM; in assay [2], 24 nM; in assay [3], 3.4 nM; in assay [4], 10 nM. For the same molecule, the koff in assay [1] stood at 0.0026 s⁻¹; in assay [2], 0.0089 s⁻¹; in assay [3], 0.009 s⁻¹; in assay [4] it was 0.013 s⁻¹. The kon in assay [1] is 720000 M⁻¹ s⁻¹; in assay [2], 380000 M⁻¹ s⁻¹; in assay [3], 2.7e+06 M⁻¹ s⁻¹; in assay [4] it was 1.7e+06 M⁻¹ s⁻¹.
